T1: CYLD CAP-Gly3 L475P (aa 467-582) (human, UniProt Q9NQC7 467-582, L475P)
T1 construct: CYLD, human, third CAP-Gly domain, aa 467-582, with L475P; Isotope-labelled for NMR; also called pOPINS-CYLD 467-582 L475P; source: E. coli Rosetta2 (DE3) pLacI, purified (HisTrap, anion exchange, SEC)
T1 sequence (looked up): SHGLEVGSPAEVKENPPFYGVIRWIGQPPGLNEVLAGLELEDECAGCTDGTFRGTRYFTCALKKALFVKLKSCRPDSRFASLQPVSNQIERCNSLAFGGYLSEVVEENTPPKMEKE

B1: CYLD CAP-Gly3 (aa 460-582) (domain or fragment, human, UniProt Q9NQC7 460-582, looked up)
chain: LAMPPGNSHGLEVGSLAEVKENPPFYGVIRWIGQPPGLNEVLAGLELEDECAGCTDGTFRGTRYFTCALKKALFVKLKSCRPDSRFASLQPVSNQIERCNSLAFGGYLSEVVEENTPPKMEKE
notes: CYLD, human, third CAP-Gly domain with flanking residues, aa 460-582; 15N- or 15N,13C-labelled where it was the observed protein in NMR; also called pOPINS-CYLD 460-582; source: E. coli Rosetta2 (DE3) pLacI, purified (HisTrap, anion exchange, SEC)
B2: NEMO ZnF domain (aa 383-419) (domain or fragment, UniProt Q9Y6K9 383-419, looked up)
chain: SQRRSPPEEPPDFCCPKCQYQAPDMDTLQIHVMECIE
notes: NEMO/IKKγ, zinc finger domain, aa 383-419; Expression and purification of this construct are not described; also called NEMO/IKKγ; pOPINB-NEMO 383-419
B3: CYLD CAP-Gly2 (aa 226-313) (domain or fragment, human, UniProt Q9NQC7 226-313, looked up)
chain: ELPPLEINSRVSLKVGETIESGTVIFCDVLPGKESLGYFVGVDMDNPIGNWDGRFDGVQLCSFACVESTILLHINDIIPALSESVTQE
notes: CYLD, human, second CAP-Gly domain, aa 226-313; Isotope-labelled where it was the observed protein in NMR; also called pOPINS-CYLD 226-313; source: E. coli Rosetta2 (DE3) pLacI, purified (HisTrap, anion exchange, SEC)
B4: CYLD CAP-Gly3 (aa 467-552), crystal form 1 (domain or fragment, human, UniProt Q9NQC7 467-552, looked up)
chain: SHGLEVGSLAEVKENPPFYGVIRWIGQPPGLNEVLAGLELEDECAGCTDGTFRGTRYFTCALKKALFVKLKSCRPDSRFASLQPVS
notes: CYLD, human, third CAP-Gly domain extended C-terminally, aa 467-552 (the crystallisation methods say 465-552); also called CAP-Gly3 (467-552); source: E. coli Rosetta2 (DE3) pLacI, purified (HisTrap, anion exchange, SEC)
B5: CYLD CAP-Gly3 (aa 467-565), crystal form 2 (domain or fragment, human, UniProt Q9NQC7 467-565, looked up)
chain: SHGLEVGSLAEVKENPPFYGVIRWIGQPPGLNEVLAGLELEDECAGCTDGTFRGTRYFTCALKKALFVKLKSCRPDSRFASLQPVSNQIERCNSLAFGG
notes: also called CAP-Gly3 (467-565); source: E. coli Rosetta2 (DE3) pLacI, purified (HisTrap, anion exchange, SEC)

Columns and labels:
Conditions in all cases: both partners purified
Ubiquitin [1] = target: T2, Ubiquitin (UniProt P0CG47 1-76); assay: NMR titration; 15N-labelled Ub observed (BEST-TROSY, weighted chemical shift perturbations), unlabelled CAP-Gly domain added (3-fold molar excess for CAP-Gly3); 298 K; 20 mM Tris pH 7.4, 100 mM NaCl, 4 mM DTT
T2 construct: ubiquitin (mono-ubiquitin), the cut product of the ubiquitin precursors; 15N-labelled in the Ub-observed NMR experiments, unlabelled in ITC, crystallisation and the CAP-Gly-observed NMR

[2] = target: B1; assay: NMR titration; isotope-labelled CAP-Gly domain or variant observed (BEST-TROSY, chemical shift perturbations), unlabelled partner added (Ub at 3-fold molar excess, or NEMO ZnF); 298 K; 20 mM Tris pH 7.4, 100 mM NaCl, 4 mM DTT
[3] = target: T1, CYLD CAP-Gly3 L475P (aa 467-582); assay: as above
Ubiquitin [4] = target: T2, Ubiquitin; assay: crystal structure; CAP-Gly3 co-crystallised with 1.1 molar excess of Ub, sitting-drop vapor diffusion; molecular replacement

Binder	binding result (Ubiquitin [1])	binding result (Ubiquitin [4])	also measured
B1	binds	–	–
B2	–	–	binding result [2]: binds; binding result [3]: binds
B3	binds	–	–
B4	–	binds	–
B5	–	binds	–

Source: publication PMC8511506 (Cell Reports, 2021)
